In patent US20230193285, “BISPECIFIC PERSONALIZED APTAMERS” (Aummune Ltd., published 2023) one finds binding result, EC50 and Kd data, which are given here for six molecules.

Data set [1] deals with T1, Notch2 (Homo sapiens, UniProt Q04721 Q04721:26-1677). As to the kind of experiment: thermofluorimetric analysis with SYBR green; dose-dependent, saturates between 100-200 nM protein. The settings on record: tags: Fc fusion, R&D Systems. How it is done: (§1) TFA was used to determine the binding of CTL3 with its putative target Notch2.100 nM CTL3, 1 uM SYBR green I (sigma), Fc-Notch2 human (R&D Systems) or Fc-CD160 (abcam) at 20, 40, 80, 160, and 320 nM were mixed together and SYBR green and fluorescence was measured from Temp=25° C. to Temp=95° C. at 1 degree/min using RT-PCR, in triplicates. The subsequent experiment was done with 50 nM of either CTL3 (SEQ ID NO: 3), scrambled-CTL3-A (SEQ ID NO: 86), or scrambled-CTL3-B (SEQ ID NO: 87); 1 µM SYBR green I (sigma); Fc-Notch2 human (R&D Systems), Fc-Notch2 mouse (R&D Systems) or Fc-Notch2 rat at 25, 50, 100 and 200 nM similar to the former experiment.
T1 sequence (Q04721 26-1677, one chain of several): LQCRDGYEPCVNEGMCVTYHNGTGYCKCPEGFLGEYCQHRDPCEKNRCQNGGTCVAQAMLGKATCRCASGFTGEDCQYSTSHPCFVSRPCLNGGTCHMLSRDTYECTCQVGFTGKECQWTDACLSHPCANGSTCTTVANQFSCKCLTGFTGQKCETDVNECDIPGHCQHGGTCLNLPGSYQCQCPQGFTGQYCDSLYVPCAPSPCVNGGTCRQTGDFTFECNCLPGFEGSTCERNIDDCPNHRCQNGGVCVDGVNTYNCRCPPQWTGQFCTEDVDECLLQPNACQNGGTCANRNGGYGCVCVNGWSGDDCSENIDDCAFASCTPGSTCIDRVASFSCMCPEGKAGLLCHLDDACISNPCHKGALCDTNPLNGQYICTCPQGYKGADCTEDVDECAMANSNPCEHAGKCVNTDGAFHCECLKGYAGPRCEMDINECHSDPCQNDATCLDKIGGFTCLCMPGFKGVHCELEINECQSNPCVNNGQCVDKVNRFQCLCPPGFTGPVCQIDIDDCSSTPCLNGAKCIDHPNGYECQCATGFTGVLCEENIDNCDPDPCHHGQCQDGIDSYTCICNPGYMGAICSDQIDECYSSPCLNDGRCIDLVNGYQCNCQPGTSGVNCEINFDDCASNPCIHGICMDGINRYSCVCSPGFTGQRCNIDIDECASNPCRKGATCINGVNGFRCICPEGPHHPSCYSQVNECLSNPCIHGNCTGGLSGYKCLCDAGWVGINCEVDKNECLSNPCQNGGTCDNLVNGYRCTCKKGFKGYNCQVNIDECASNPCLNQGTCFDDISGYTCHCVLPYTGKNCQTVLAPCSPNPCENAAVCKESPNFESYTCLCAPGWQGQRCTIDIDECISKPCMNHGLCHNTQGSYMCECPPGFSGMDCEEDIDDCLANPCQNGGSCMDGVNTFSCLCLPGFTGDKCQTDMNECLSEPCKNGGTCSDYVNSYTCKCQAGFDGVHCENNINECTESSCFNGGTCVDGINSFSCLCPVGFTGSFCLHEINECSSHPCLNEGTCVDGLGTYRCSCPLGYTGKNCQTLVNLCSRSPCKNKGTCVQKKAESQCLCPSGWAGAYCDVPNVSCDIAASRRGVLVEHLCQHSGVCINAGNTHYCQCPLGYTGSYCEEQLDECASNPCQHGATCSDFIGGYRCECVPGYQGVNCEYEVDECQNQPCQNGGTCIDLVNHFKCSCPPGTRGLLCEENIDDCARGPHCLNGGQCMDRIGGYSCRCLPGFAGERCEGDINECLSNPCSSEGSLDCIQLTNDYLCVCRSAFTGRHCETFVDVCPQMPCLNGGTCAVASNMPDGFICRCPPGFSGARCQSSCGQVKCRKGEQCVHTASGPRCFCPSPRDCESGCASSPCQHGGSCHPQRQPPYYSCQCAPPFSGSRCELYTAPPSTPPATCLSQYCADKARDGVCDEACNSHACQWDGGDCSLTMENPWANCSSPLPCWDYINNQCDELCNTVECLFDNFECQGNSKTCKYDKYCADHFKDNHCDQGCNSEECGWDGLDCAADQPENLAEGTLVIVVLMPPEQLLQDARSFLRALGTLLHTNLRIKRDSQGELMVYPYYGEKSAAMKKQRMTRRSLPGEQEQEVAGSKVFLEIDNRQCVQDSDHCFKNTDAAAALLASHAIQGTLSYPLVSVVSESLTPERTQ
(§2) A Tₘ melting curve profile was generated by measuring SYBR green fluorescence during temperature gradient, to monitor aptamer-protein complexes in the presence of different concentrations of either Notch2 or the non-specific control (CD 160 protein). Only upon the addition of increasing concentrations of Notch2, and not CD160, a dose-dependent change in CTL3-associated fluorescence was measured (FIG. 19). When looking at the total fluorescence graph, high fluorescence intensity can be seen at 25° C., however, when examining the derivative rate of change of […] (dF/dT) curves, the temperature-dependent intensity reached a maximum at 37° C.

The target of data set [2] is T2, CD160 (UniProt O95971 O95971:25-159).
T2 sequence: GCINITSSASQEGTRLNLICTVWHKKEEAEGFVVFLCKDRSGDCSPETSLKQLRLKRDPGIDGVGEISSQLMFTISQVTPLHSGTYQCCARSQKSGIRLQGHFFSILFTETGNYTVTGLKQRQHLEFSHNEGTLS
As to the kind of experiment: thermofluorimetric analysis; specificity control. The settings on record: tags: Fc fusion, abcam. How it is done:
as §1, §2
In general terms: DSF heats the sample and reads unfolding from a dye or from intrinsic fluorescence.

Data set [3] has as its target CD3 epsilon (Jurkat T cells) (Homo sapiens, UniProt P07766 P07766:23-207). Description: flow; binding to Jurkat cells, 1 h 37 C, PBS 1 mM MgCl2, BSA, tRNA. The settings on record: tags: native on Jurkat cells ATCC TIB-152; label: Cy5-CpG' complementary strand. Here is the method:
5 x10⁴ Jurkat cells were washed and re-suspended in x1 folding buffer that contain 0.1% BSA and 0.01% tRNA. 0.1-80 nM of CS6 aptamer were labelled with CpG′-Cy5 tag (1:1 ratio) and folded (95℃ 5 min, ice 10 min, and maintenance at 4℃). Next, the DNA aptamers were mixed with the cells and incubated for 1 hr at 37℃ in V shape 96 well plate under gentle shaking conditions. After incubation, the cells were washed twice with folding buffer X1 and analysed via flow cytometry (CytoFlex).
Subsequently CS6 effective concentration 50 (EC₅₀) was evaluated. A serial dilution of -Cy5 labelled aptamer was incubated with Jurkat cells for 1 hr at 37℃ and assessed for binding via flow cytometry (FIG. 27).

The target in data set [4] is T1, Notch2. As to the kind of experiment: thermofluorimetric analysis. The settings on record: tags: Fc fusion, R&D Systems. Here is the method:
as §1

Data set [5] deals with T3, CD3 epsilon (Homo sapiens, UniProt P07766 P07766:23-126). Description: HPLC size exclusion; negative control sequence. The settings on record: tags: Fc chimera His tag, Abcam ab220590; label: Cy5. How it is done:
Top five candidates (CS6, CS7, CS8, CS9, and CS8c; SEQ ID NOs: 88-92, respectively) were synthesized with a 5(5′) phosphothioated CpG motif and assayed for Human CD3ε (hCD3ε) binding via the HPLC size exclusion column. In this method, the aptamers were labelled with Cy5 complementary sequence to the CpG site (Cy5-CpG’). Then, the folded-labelled candidates are incubated, each, with the CD3ε- recombinant protein or with negative control IgG1 (1 hr at 37℃ and 4℃) and analyzed by HPLC ProSEC 300S size exclusion column (Agilent) at 570 nm absorption. Upon protein binding, the aptamer-protein complex has a greater mass than a free aptamer and as a result, the retention time (RT) at the column is expected to be shorter. Inversely, in the case of non-binding aptamer, the RT in the presence of protein will be the same as in the absence of the protein. As a control, PolyT sequence was used.

Data set [6] concerns the target T3, CD3 epsilon. Description: SPR. The note with it: tags: Fc chimera His tag, Abcam ab220590.

T3 sequence (P07766 23-126, one chain of several): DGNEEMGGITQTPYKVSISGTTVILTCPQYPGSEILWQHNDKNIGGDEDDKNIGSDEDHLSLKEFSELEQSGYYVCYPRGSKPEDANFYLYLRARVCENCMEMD
CD3 epsilon (Jurkat T cells), sequence (P07766 23-207, one chain of several): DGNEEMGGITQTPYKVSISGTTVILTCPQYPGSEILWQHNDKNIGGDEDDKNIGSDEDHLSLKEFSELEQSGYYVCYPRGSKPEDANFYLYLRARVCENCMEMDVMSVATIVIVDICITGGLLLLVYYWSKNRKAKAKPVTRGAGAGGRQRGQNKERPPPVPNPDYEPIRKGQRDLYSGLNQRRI

Take GCATACCTTTCGTATGCCTTTTTGACCCGTATTTTTGCCCTACCCTTCGG (ssDNA) [CTL3]: the binding result is “binds” in data set [1] and “no binding” in data set [2].

B1: CpG1-CS6 (ssDNA)
DNA: TCGTCGTCGCGGTTCGCGTCCGTATCGTATAAGGGCTGCTTAGGATTGCGATAATACGGTCAA
modifications: PS on first five 5' nucleotides of CpG motif
The EC50 is the concentration at which the effect is half-maximal. Low values mean an effect from little substance, high ones a need for much substance. On to B1, for which the EC50 in data set [3] stood at 19.6 nM.

Take TCTTTCGTTAGCGCTTCTCTCTTGCGATTCCGACCGCATATTCACGTCTT (ssDNA) [Scrambled-CTL3-B]: in data set [4], the binding result is on record as “no binding”.

B2: PolyT control (ssDNA)
DNA: TCGTCGTCGCGGTTCGCGTCCGTTTTTTTTTTTTTTTTTTTTTTTTTTTTTTTTTTTTTTTTTTTTTTTTTTT
With B2, the binding result in data set [5] is “no binding”.

Turning to GTTCTTATAATCGCCTCTGCGCTATGTTCTTGCTCGCCTTCCATATCGCT (ssDNA) [Scrambled-CTL3-A], the binding result in data set [4] is recorded as “no binding”.

As usually defined, the Kd is the equilibrium constant for the complex coming apart. Read a low Kd as higher affinity. Molecule ATCGTATAAGGGCTGCTTAGGATTGCGATAATACGGTCAA (ssDNA) [CS6] registered a Kd in data set [6] of 31 nM.
